Source: the nanobody polyreactivity screen of Harvey et al. (2022)

Assay: yeast display, Sf9 membrane polyspecificity reagent, FACS + sequencing; frameworks hold sequencing errors
Procedure, shortened: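 After 36–48 hours of galactose induction, yeast (Saccharomyces cerevisiae BJ5465) displaying a synthetic nanobody library were stained at 4 °C for 1 hour with 10% biotinylated, detergent-solubilized Sf9 membrane reagent. Streptavidin microbeads enriched the stained cells before FACS sorting into low and high (top ~1%) gates on anti-HA and streptavidin fluorescence. Each clone's polyreactivity label reflects its gate of origin.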

Sequence: QVQLVESGGGLVQAGGSLRLSCAASGNIFPYYAMGWYRQAPGKERELVAAISGSGDRTYYADSVKGRFTIARDNAKNTVYLQMNSLKPEDTAVYYCAASRRYYGWYEYWGQGSQVTVSS
- polyreactivity (PSR sort gate): high polyreactivity

Sequence: QVQLVESGGGLVQAGGSLRLSCAPSGSIFRKNAMGWYRQAPGKERELVAAITGTGRTTYADSVKGRFTISRDNAKNTVYLQMNSLKPEDTAVYYCAAESVSSGDNASRYDYWGQGTQVTVSS
- polyreactivity (PSR sort gate): low polyreactivity

Sequence: QVQLVESGGGLVQAGGSLRLSCAASGFIFKSYAMGWYRQAPGKERELVAGITRRGGSTYYADSVKGRFTISRDNSKNSVYFQMISLKPEDTAVYYCNAGRKTADYDYWGQGTQVTVSS
- polyreactivity (PSR sort gate): high polyreactivity

Sequence: QVQLVESGGGLVQAGGSLRLSCAASGFIFRSYVMGWYRQAPGKEMEFVAVITSSGGRTYYADSVKGRFTISRDNAKNTVYLQMNSLKPEDTAVYYCAATRRYPPRRVWYDYWGQGTQVTVSS
- polyreactivity (PSR sort gate): high polyreactivity

Sequence: QVQLVESGGGLVQAGGSLRLSCAASGFTLEDYTMGWYRQAPGKERELVARITSGGSTNYADSVKGRFTISRDNAKNTVYLQMKSLKPEDTAVYYCNARYAWINMDYWGQGTQVTVSS
- polyreactivity (PSR sort gate): low polyreactivity

Sequence: QVQLEESGGGLVQAGGSLRLSCAASGRIQYNAMGWYRQAPGKEREFVAAISWSGGTTYYADSVKGRFTISRDNAKNTVYLQMNSLKPEDTAVYYCATPYTHWGQGTQVTVSS
- polyreactivity (PSR sort gate): high polyreactivity

Sequence: QVQLVESGGGIVKAGGSLRLSCAPSGSTFDYYTMGWYRQAPGKERELVAAISRSGGSTRYADSVKGRFTISRDNAKNTVDLQMNSLKPEDTAVYYCAAGARQGVYRGGDYWGQGTQVTVSS
- polyreactivity (PSR sort gate): low polyreactivity

Sequence: QVQLVESGGGLVQAGGSLRLSCAASGSTFTRYDMGWYRQAPGKERELVAAISKSGGSTYYADSVKGRFTISRDNAKNTVYLQMNSLKPEDTAVYYCARGSTKYHIYSLDYWGQGTQVTVSS
- polyreactivity (PSR sort gate): low polyreactivity

Sequence: QVQLVESGGGLVQAGGSLRLICAASGSTFFPYAMGWYRQAPGKERELVAGISSDGGTSYADSVKGRFTISRDNAKNTVYLQMNSLKPEDTAVYYCAAYYTHQPAHHYWGQGTQVTVSS
- polyreactivity (PSR sort gate): low polyreactivity

Sequence: QVQLVESGGGLVQAGGSLRLSCAASGRTFYANAMGWYRQAPGKERELVAAISSRSGTTHYAHSVKGRFTISRDNAKNTVYLQMNSLKPEDTAVYYCAADSCDLYVWGYDHWGQGTQVTVSS
- polyreactivity (PSR sort gate): low polyreactivity

Sequence: QVQLVESGGGLVQAGGSLRLSCAASGIIFFRYAMGWYRQAPGKERELVAGISGSGGSTYYADSVKGRFTISRDNAKNTVYLQMNSLKPEDTAVYYCAKQWKSNIYYQGGYWGQGTQVTVSS
- polyreactivity (PSR sort gate): high polyreactivity

Sequence: QVQLVESGGGLVQAGGRLRLSCAASGIRSYRNGMGWYRQAPGKERELVASISKRADSTYYADSVKGRFTISRDNAKITVYLQMNSLKPEETAVYYCYVVSKVIRGLSGDGYWGQGTQGTVSS
- polyreactivity (PSR sort gate): high polyreactivity

Sequence: QVQLVESGGGLVQAGGSLRLSCAASGSTFRRYAMGWYRPAPGKERELVAAISTRGGSTYYADSVKGRFTISRDNAKNTVYLQMNSLKPEDTAVYYCAADEPKYTSSSSRRYGYWGQGTQVTVSS
- polyreactivity (PSR sort gate): high polyreactivity

Sequence: QVQLVESGGGLVQAGGSLRLSCAASGFTFAHYAMGWYRPAPGKERELVAAISGSGSSTYYADSVKGRFTISRDYAKNSVYLKMNSLKPEDTAVYYCNVRWYFLYYYWGQGTQVTVSS
- polyreactivity (PSR sort gate): low polyreactivity

Sequence: QVHLVESGGGLVQAGGSLRLTCAASGFIFEYNAMGCYRQAPGKEREFVAAITSSGGSTYYADSVIGRFTISRDNAKNTVYLQMNSLKPEDTAVYYCARVRRSAYYKDYYYWGQGTQVTVSS
- polyreactivity (PSR sort gate): high polyreactivity

Sequence: QVQLVESGGGLFQAGGSLRLTCAASGRIFTHYSMGWYRQPPGKEREFVAAISRSGARTYYADSVKGRFTISRDYAKNTVYLQMYSLKREVTSVYYCAKDQVDSPRDRYQKLDFWGQGTQVTVSS
- polyreactivity (PSR sort gate): low polyreactivity

Sequence: QVQLVESAGGLVQAGGSLRLSCAASGRTLTGNALGWYRQAPGKESELVAAITARGGSTKYADSVKGRFTISRDNAKNTVYFLMNSLKPEDTAVFYCAAGCWYYLHMDYWGQGTQVTVSS
- polyreactivity (PSR sort gate): high polyreactivity

Sequence: QVQLVESGGGLVQAGGSLRLSCAASGRTFRYNAMGWYRQAPGKERELVAAISGSGGITYYADSVKGRFTISRDNAKNTVYLQMNSLKPEDTAVYYCAAVYRYNSDPDYDYWGQGTQVTVSS
- polyreactivity (PSR sort gate): high polyreactivity

Sequence: QVQLVESGGGLDQAGGSLRLSSAASGFTFVYYAMGWYRQAPGKERELVAAISWSGGTTYYADSVKGRFTISRDNAKNTVYLQMNSLKPEDTAVYYCNVYPAYIYFDYDYWGQGTQVTVSS
- polyreactivity (PSR sort gate): high polyreactivity

Sequence: QVQLVESGGGLVQAGGSLRLSCAASGVIFGYYAMGWDRQAPGKERELVAAITLSGSRTYYADSVTGRFTISRDTAKNTVDLQMNSLKPEDTAVYYCAKRRYWYYRSRDWFVSGDYWGQGTQVTVSS
- polyreactivity (PSR sort gate): low polyreactivity

Sequence: QVQLVESGGGLVQAGGSLRLSCAASGSTFYYYAMGGYRQAPGKERELVAAISISDNSTYYADSVKGRFTSSRDNAKNTVYLQMNSLKPEDTAVYYCAAYGWYAHDDSTYDYWGQGTQVTVSS
- polyreactivity (PSR sort gate): low polyreactivity

Sequence: QVQLVESGGGLVQAGGSLRLSCAASGRIFGYYAMGWSRQAPGKEWELVAAISSGGRTYYADSVKGRFTISRDNAKNTVYLQMNSLKPEDTAVYYCAARSRVPPAGPRYDYWGQGTQVTVSS
- polyreactivity (PSR sort gate): high polyreactivity

Sequence: QVQLVESGGGLVQAGGSLRLSCAASGFIFNSYAMGWYRQAPGKERELVATITNGGTTNYADSVKGRFTLSRDNATITVYLQMNSLKPEDTAVYYCAAVGPSVYHEYDYWGQGTQVTVSS
- polyreactivity (PSR sort gate): low polyreactivity

Sequence: QVQLVESGGGLVQAGGSLRLSCAASGITLGYYVMGCYRPAPGKERELVAAISSSGGRTYYADSVKGRFTISRDTAKNTVYLQMNCLKPEDTAVYYCAADVGRGIYDYWGQGNQVTVSS
- polyreactivity (PSR sort gate): low polyreactivity

Sequence: QVQLVESGGGLVQAGGSLRLICAASGFTFNFYAMGWYRQAPGKEMELVASITSSGARTYYADSVKGRFTISRDNAKNSVYLQMNSQKPEDTAVYYCAARVYRYSASRAYDYWGQGTQVTVSS
- polyreactivity (PSR sort gate): high polyreactivity

Sequence: QVQLVESWGGLVQAGGSLRLSCAASGSTFQPYAMGWYRQAPGKERELVAAIRSIAGSTYYADSVKGRFTISRDNAKITVYLQMNSLKPEDTAVYYCAADWWRVEMDYWGQGTQVTVSS
- polyreactivity (PSR sort gate): low polyreactivity

Sequence: QVQLVESGGGLVQAGGSLRLSCAASGISDWYAMGWSRQAPGKERELVASITDGGSTKYADSVKGRFTISRDNAKNTVYLQMNSLKPEDTAVYYCNNTFRVYFSRSWWSRYYYWGQGTQVTVSS
- polyreactivity (PSR sort gate): low polyreactivity

Sequence: QVQLVESGGGLVQAGGSLRLSCAASGSMSYGYGMGWYRQAPGKEREVVATISGRAGSTYYADSVKGRFTISRDNAKNTVYLQINSLQPEDTAVYYCAAKWWRLTWTAGYGGRGYGYWGQGTQVTVSS
- polyreactivity (PSR sort gate): low polyreactivity

Sequence: QVQLVESGGGLVQAGGSLRLSCAASGRILDANDMGWYRQAPGKERELVAGINSGGSTYYADSVKGRFTISRDNAKNTVYLQMNSLKPEDTAVYYCAAGGVSAKYDYWGQGTKVTVSS
- polyreactivity (PSR sort gate): low polyreactivity

Sequence: QVQLVESAGGLVQAGGSHRLSCAASVLIFRYYAMGWFRQAPGKEWELFAAISNSGGGTYYADSVKGRFTISRDNAKNTVYLLMNSLIPVDTAVYYCAARHAFCFRFVSWGLGTQVTVSS
- polyreactivity (PSR sort gate): high polyreactivity

Sequence: QVQLVESGGGLVQAGGSLRLSCAASGSTGVNTMGWYRQAPGKERELVAAIRATGGSTYYADSVKGRFTISRDNAKNTVYLQMNSLKPEDTAVYYCAARYYRSQYWYDDSWGQGTQVTVSS
- polyreactivity (PSR sort gate): high polyreactivity

Sequence: QVQLVESGGGLVQAGGSLRLSCAASGSIFGYYSMGWYRQAPGKERELVASITSGDSTNYADSVKGRFTISRDNAKNTVYLQMNSLKPEDTAVDYCNTERGYYDEYDYWGQGTQVTVSS
- polyreactivity (PSR sort gate): low polyreactivity

Sequence: QVQLVESVGGLVQAGGSLRLSCAASGSIFGYYAMGWYRPAPGKERELVATITWGGGSTYADSVKGRFTISRDNAKNTVYLQMNSLKPEDTAVYYCNAGYRYTSAQVTWEYDYWGQGTQVTVSS
- polyreactivity (PSR sort gate): low polyreactivity

Sequence: QVQLVESGGGLVQAGGSLRLSCAASGSTFYKYAMGWYRQAAGKERELVASISRSGGSTSYADSVKGRFTISRDNAKNTVYLQMNCLKPEDTAVYYCAATWRQHPGSMGYWGQGTQVTVSS
- polyreactivity (PSR sort gate): high polyreactivity

Sequence: QVQLVESGGGLVQAGGSLRLSCAASGSTFGVNAMGWYRQAPGKERELVAVITRSGGSTYYADSVKGRFTISRDNAKNTFNLQMNSLKPEDSAVYYCNTEGGRDTAWYDYWGQGTEVTVSS
- polyreactivity (PSR sort gate): low polyreactivity

Sequence: QVQLVESGGGLVQAGGSLRLSCAASGFTLRVNDMGWYRQAPGKERELVAGITVSGGSTYYADSVKGRFTISRDNAKNTVYLQMNSLKPEDTAVYYCNADNYENATGMDYWGQGTQVTVSS
- polyreactivity (PSR sort gate): low polyreactivity

Sequence: QVQLVVSGGGLVQAGGSLRLSCAASGSTVVTYAMGWYRQAPGKERELVAAISRSGTSTYYADSVKGRYTISRDNAKYTVYLHLPSRKPEDTAVYDCAAYGPRVNGEIGREYYYWGQGTQVTVSS
- polyreactivity (PSR sort gate): low polyreactivity

Sequence: QVQLVESGGGLVQAGGSLRLSCAASGSIFRYYTMGWYRQAPGKERELVARISSSGSTNYADSVKGRFTISRDNAKNTVYLQMNSLKPEDTAVYYCAARSFSWAGYYYWGQGTQVTVSS
- polyreactivity (PSR sort gate): low polyreactivity

Sequence: QVQLVESGGGLVQAGGSLRLSCAASGRIFGVYAMGWYRQAPGKERELVASISDGTITNYADSVKGRFTISRDNAKNTVYLQMNSLKPEDTAVYYCAATWSFVYGDYFEYDYWGQGTQVTVSS
- polyreactivity (PSR sort gate): low polyreactivity

Sequence: QVQLVESGGGLVQPGGSLRLSCAASGFIYSYYAMGLYRPAPGKERELVAVITRSVGSTYYADSVKGRFTISRDNAKNTVYLQMNSLKPEYTAVYYCAAGYFYHFSRYTNRYGYWGQGTQVTVSS
- polyreactivity (PSR sort gate): high polyreactivity

Sequence: QVQLVESGGGLVQAGASLRLSCAASGFTFTPYAMGWYRQAPGKEREMVAAISWGDGSTYYADSVKGRFTISRDNAKNTVYLQMNSLKPEDTAVYYCAADFDFYYDWIYYYWGQGTQVTVSS
- polyreactivity (PSR sort gate): high polyreactivity

Sequence: QVQLVESGGGLVQAGGSLRLSCAASGFTFGENAMGWYRQAPGKERELVAAITGGTDTNYADSVKGRFTISRDNAKNTVYLQMNSLKPEDTAVYYCAAYVPHFAPLGGGGGYDYWGEGTQVTVSS
- polyreactivity (PSR sort gate): low polyreactivity

Sequence: QVQLVESGGGLVQAGGSLRLSCAASGRTFNGYAMGWYRQAPGKERELVARITYRGGGTYYADSVKGRFTISRDNAKNTVYLQMNSLKPEDTAVYYCNARGVQYRYYYWGQGTQVTVSS
- polyreactivity (PSR sort gate): high polyreactivity
